Test results reported in paper PMC5109225.

Experiments:
[1] = target: Bemisia tabaci B Cyclophilin B protein (Bemisia tabaci B (endogenous in whitefly adults))
[2] = target: Bemisia tabaci B Cyclophilin B protein (Bemisia tabaci B (endogenous in whitefly adults)); remark: listed apart in the source

Work on “Tomato yellow leaf curl virus coat protein (in virions) (natural protein)” yielded a TYLCV transmission rate to tomato test plants (one insect/plant) by whiteflies fed anti-CypB antibody (2 μg/μl in 25% sucrose, 24 h) before virus acquisition; control fed 25% sucrose: 60% [1] of 17% and a TYLCV transmission rate to tomato test plants (one insect/plant) by whiteflies fed the Cyp inhibitor Cyclosporin A (2 μg/μl in 25% sucrose, 24 h) before virus acquisition; control fed 25% sucrose: 60% [2] of 27%.
